Assay results published in patent publication US20150202273A1 (SHENZHEN INNOVATION IMMUNOTECHNOLOGY, published 2015).

B1: PSGR3 (peptide)
peptide: ILANIYLLV
B2: PSGR4 (peptide)
peptide: WLAFPLCSL
B3: PSGR14 (peptide)
peptide: VILANIYLLV

target: HLA-A2 molecules on T2 cells (human); experiment: cell-based or functional assay

IFN-γ release (ELISA) by expanded peptide-specific T cells in response to T2 cells pre-loaded with titrated peptide (0-20 µg/ml), 5 µg/mL:
B1
B2
B3
